In US20210032331A1 (PHANES THERAPEUTICS, published 2021):
Changes are numbered by the printed parent chain.

B1: BG29 (human IgG4 heavy chain and kappa light chain chimeric) (antibody, V domains shown)
VH: QIQLQQSGPEVVKPGASVRISCKASGYTFSDYHINWVKQKPGQGLEWIGWIYPGRGDPEYNEKFKGKATLTVDRSASTAYMQLSSLTSEDTSVYFCEIYYGNYIDYWGQGTTLTVSS
VL: DIVMTQAAPSVPVTPGESVSISCRSSKSLLHSDGKTYLYWFLQRPGQSPQRLIYYMSNLASGVPDRFSGRGSGTDFTLRISRVEAEDVGVYYCMQSLEYPWTFGGGTKLEIK
notes: Chimeric: mouse VH and VL with human IgG4 heavy chain and kappa light chain constant regions; also called chimeric BG29
B2: B9C (antibody, V domains shown)
VH: EVQLRQSGPVLVKPGASVKMSCKASGYTFTGYYMNWVKQSHGKSLEWLAVINPYNGDTAYNRKFKGRATLTVDKSSSTAYMELNRLTSEDSAVYYCVRDDGYHVRYFDVWGTGTTVTVSS
VL: DIQMTQSPSSLSASLGERVSLTCRASQDISDSLCWLQQKPDGTIKRLIYSTSTLDSGVPKRFSGSRSGSDYSLTISSLESEDFADYYCLQYASSPPTFGGGTKLEIK
notes: Chimeric: mouse VH and VL fused to constant regions of human IgG1 heavy chain and kappa light chain; also called the chimeric version of mouse mAb B9
B3: B11C (antibody, V domains shown)
VH: EVQLQQSGPVLVRPGASVKMSCKASGYTFTNYYMNWVKQSHGKSLEWIGVINPYNGDIAYSQKFKGKATLTVDKSSSTAYMELKSLTSEDSAVYYCARDDGYYVYYFDCWGQGTTLTVSS
VL: B2 VL with S30G, D31G, C34N, Y91N, S93N
notes: Chimeric: mouse VH and VL fused to constant regions of human IgG1 heavy chain and kappa light chain; also called the chimeric version of mouse mAb B11
B4: B3C (antibody, V domains shown)
VH: QVQLQQPGAELLKPGASVKMSCKASGYTFTSYDIHWLKQTPGQGLEWIGAIYPENGDSSYSQKFKDKATLTADKSSNTAYIHLSSLTSEDSAVYYCARGGYYDYVWFPYWGQGTLVTVSA
VL: DVVMTQTPLSLPVSLGDQASISCRSSQSILYSNGYTYLEWYLQKPGQSPKLLIYGVSNRFSGVPDRFSGSGSGTDFTLKISRVESEDMGVYYCFQGTHVPLTFGAGTKLELK
notes: Chimeric: mouse VH and VL fused to constant regions of human IgG1 heavy chain and kappa light chain; also called the chimeric version of mouse mAb B3; B3 (human IgG1 heavy chain and kappa light chain chimeric)
B5: B4C (antibody, V domains shown)
VH: B4 VH with D66G, Y102F
VL: B4 VL with L30V, S85A
notes: Chimeric: mouse VH and VL fused to constant regions of human IgG1 heavy chain and kappa light chain; also called the chimeric version of mouse mAb B4; B4 (human IgG1 heavy chain and kappa light chain chimeric)
B6: B15 (antibody, V domains shown)
VH: EVQLQQSGAELVRPGASVKLSCTASGFNIKDDYMFWVKQRPEQGLEWIGWIDPENGDTEYASKFQGKATITADTSSNTAYLQLSSLTSEDTAVYYCTLYAYWGQGTLVTVSA
VL: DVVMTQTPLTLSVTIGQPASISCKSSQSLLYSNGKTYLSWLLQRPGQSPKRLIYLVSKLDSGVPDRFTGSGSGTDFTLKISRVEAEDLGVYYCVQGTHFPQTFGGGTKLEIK
notes: Mouse mAb from hybridoma; also called mouse anti-LAG-3 mAb B15
B7: B7C (antibody, V domains shown)
VH: EFQLQQSGPELVKPGASVKISCKASGYSFSDYNLNWVKQSNGKTLEWIGLINLDSAATVYNQKFKGKATLTIDQSSTTAYMQLNSLTSDDSAVYYCASYDYWGQGTTLTVSS
VL: DIQMTQSPSSLSASLGERVSLSCRASQDISHYLNWFQQKPDGTFKRLIYETSTLDFGVPKRFSGSRSGSDYSLTIGSLESEDFADYYCLQYATYPLTFGAGTKLELK
notes: Chimeric: mouse VH and VL fused to constant regions of human IgG1 heavy chain and kappa light chain; also called the chimeric version of mouse mAb B7
B8: B10C (antibody, V domains shown)
VH: EFQLQQSGPELVKPGASVKISCKASGYSFTDYNLNWVKESNGKSLEWIGLITLDYGTTIYNQKFKGKATLTVDQSSSIAYMQLNSLTSDDSAVYYCACYDYWGQGTTLTVSS
VL: B7 VL with S22T, H31N, E50A, G76S, T93S
notes: Chimeric: mouse VH and VL fused to constant regions of human IgG1 heavy chain and kappa light chain; also called the chimeric version of mouse mAb B10
B9: B1C (antibody, V domains shown)
VH: DVQLQESGPGLVKPSQSLSLTCTVTGYSITSDYAWNWIRQFPGNKLEWMGYIDYSGITSYNPSLKSRISITRDTSKNQFFLQLNSVTTEDTATYYCAREDHYDLAWFAYWGQGTLVTVSA
VL: DIQMTQTTSSLSASLGDRVTISCRASQDISNYLNWYQQKPDGTVKLLIYYTSRLHSGVPSRFSGSGSGTDYSLTISNLEPEDIATYYCHQYSNRPPTFGGGTKLEIK
notes: Chimeric: mouse VH and VL fused to constant regions of human IgG1 heavy chain and kappa light chain; also called the chimeric version of mouse mAb B1

biological target: T1, B5/IgG4; assay: ELISA peptide competition: peptide preincubated with B5/IgG4, competitor hLAG3-mFc; peptide at 600-fold hLAG3-mFc; capture on anti-human IgG, anti-mouse IgG-HRP
T1 construct: Chimeric: mouse VH and VL with human IgG4 heavy chain and kappa light chain constant regions; also called B5 (human IgG4 heavy chain and kappa light chain chimeric)
Procedure: (§1) FIGS. 5A-5D show the effect of competition peptides on LAG-3 binding to anti-LAG-3 mAbs. […] B5/IgG4 was preincubated with a competition peptide for 30 minutes. Then human LAG-3 extracellular domain (ECD) fused to mouse Fc (hLAG3-mFc) was added (the final peptide concentration was 600-fold that of hLAG3-mFc) and the mixture was incubated for 60 minutes before being added to an ELISA plate coated with anti-human IgG. The incubation was carried out at 4° C. overnight. After washing, the hLAG3-mFc bound to the immobilized B5/IgG4 on the ELISA plate was detected by adding anti-mouse IgG conjugated to horseradish peroxidase (HRP) and incubating for 60 minutes. Then, after washing, the ELISA was developed using One-step Detection Solution and measured as the absorbance at 450 nm.
(§2) Anti-human IgG in carbonate coating buffer was coated on an ELISA plate at 4° C. (50 μL/well at 1 μg/mL) overnight. In each well of a separate plate, a chimeric version of a given anti-LAG-3 mAb (50 μL/well at 1.4 nM) and a competition peptide (50 μL/well at various concentrations as indicated in the figures) were mixed and incubated for 30 minutes at room temperature. Then human LAG-3 extracellular domain (ECD) fused to mouse Fc (hLAG3-mFc) was added to each well (50 μL/well at 2 nM) and the final mixture was incubated at room temperature for 60 minutes before added to the ELISA plate (50 μL/well) for another 60-minute incubation. The final incubation after adding the mixture to the ELISA plate was also performed at 4° C. overnight in some assays. The plate was washed and the binding of hLAG3-mFc to the immobilized anti-LAG-3 mAb was detected by adding anti-mouse IgG conjugated to horseradish peroxidase ([…]) (ThermoFisher Scientific, Cat#: A16084; Waltham, Mass.) and incubating for 60 minutes.

Binder	binding result
PDSGPPAAAPGHPLAP (also called peptide P16) [P16]	binds
QPDSGPPAAAPGHPLA (also called peptide Q16) [Q16]	binds
SGPPAAAPGHPLAP (also called peptide S14) [S14]	binds
PPAAAPGHPLA (also called peptide 2-12) [2-12]	binds
QPDSGPPAAAPGHPLAP (also called peptide Q17) [Q17]	binds
DSGPPAAAPGHPLAP (also called peptide D15) [D15]	binds

biological target: T2, B7/IgG4; assay: ELISA peptide competition: peptide preincubated with B7/IgG4, competitor hLAG3-mFc; peptide at 600-fold hLAG3-mFc; final incubation 60 min at room temperature; anti-mouse IgG-HRP
T2 construct: Chimeric: mouse VH and VL with human IgG4 heavy chain and kappa light chain constant regions; also called B7 (human IgG4 heavy chain and kappa light chain chimeric)
Procedure: B5/IgG4 was preincubated with a competition peptide for 30 minutes. Then human LAG-3 extracellular domain (ECD) fused to mouse Fc (hLAG3-mFc) was added (the final peptide concentration was 600-fold that of hLAG3-mFc) and the mixture was incubated for 60 minutes before being added to an ELISA plate coated with anti-human IgG. The incubation was carried out at 4° C. overnight. After washing, the hLAG3-mFc bound to the immobilized B5/IgG4 on the ELISA plate was detected by adding anti-mouse IgG conjugated to horseradish peroxidase (HRP) and incubating for 60 minutes. Then, after washing, the ELISA was developed using One-step Detection Solution and measured as the absorbance at 450 nm.
The assay condition is the same as in FIG. 5A except that the final incubation of the mAb, the competition peptide, and hLAG3-mFc on the ELISA plate was performed at room temperature for 60 minutes instead of incubation at 4° C. overnight.
Anti-human IgG in carbonate coating buffer was coated on an ELISA plate at 4° C. (50 μL/well at 1 μg/mL) overnight. In each well of a separate plate, a chimeric version of a given anti-LAG-3 mAb (50 μL/well at 1.4 nM) and a competition peptide (50 μL/well at various concentrations as indicated in the figures) were mixed and incubated for 30 minutes at room temperature. Then human LAG-3 extracellular domain (ECD) fused to mouse Fc (hLAG3-mFc) was added to each well (50 μL/well at 2 nM) and the final mixture was incubated at room temperature for 60 minutes before added to the ELISA plate (50 μL/well) for another 60-minute incubation.

Binder	binding result
PHPAAPSSWGPRPRR (also called peptide 15-29) [15-29]	binds
PHPAAPSSWGPRPR (also called peptide 15-28) [15-28]	binds
PHPAAPSSWGPRP (also called peptide 15-27) [15-27]	binds

biological target: T3, human LAG-3(ECD)-mFc (human, UniProt P18627 23-450); assay: FACS blocking assay: mAb preincubated with LAG-3(ECD)-mFc (1 µg/mL), blocked ligand MHC class II on Daudi cells, PE anti-mouse Fc
T3 construct: also called hLAG3-mFc; human LAG-3 extracellular domain (ECD) fused to mouse Fc; not shown: mouse Fc
T3 sequence: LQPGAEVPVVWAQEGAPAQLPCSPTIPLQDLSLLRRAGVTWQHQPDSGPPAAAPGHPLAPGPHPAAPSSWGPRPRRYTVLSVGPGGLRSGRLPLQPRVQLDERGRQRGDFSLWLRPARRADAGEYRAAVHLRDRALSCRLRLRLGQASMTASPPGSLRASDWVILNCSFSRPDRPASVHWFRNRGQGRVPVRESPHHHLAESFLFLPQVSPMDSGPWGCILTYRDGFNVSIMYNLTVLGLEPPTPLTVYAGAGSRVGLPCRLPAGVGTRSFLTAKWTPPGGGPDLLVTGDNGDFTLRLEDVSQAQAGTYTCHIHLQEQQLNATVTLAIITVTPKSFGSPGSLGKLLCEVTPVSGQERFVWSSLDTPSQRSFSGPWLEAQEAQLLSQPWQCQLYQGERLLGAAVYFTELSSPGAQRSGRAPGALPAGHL
Procedure: FIGS. 4A-4D show inhibition of human LAG-3 binding to MHC class II molecules by select anti-LAG-3 mAbs. An in vitro binding assay was performed using recombinant LAG-3(ECD)-mFc and Daudi cells which express human MHC class II molecules. […] The binding of LAG-3(ECD)-mFc to Daudi cells in the presence of anti-LAG-3 mAbs or a control mAb was analyzed by FACS.
Human Daudi cells were cultured in RPMI+10% FBS. Human LAG-3(ECD)-mFc protein (human LAG-3 ECD fused to mouse Fc) at 1 μg/ml final concentration was incubated with purified mouse, humanized, or chimeric anti-LAG-3 mAbs at various concentrations for 15 minutes at 4° C. The mixture was then added to 100,000 human Daudi cells in a 96-well round bottom plate, mixed and incubated for 15 minutes on ice. Cells were then centrifuged at 1,000 rpm for 5 minutes and washed with FACS buffer (PBS supplemented with 5% BSA) three times. The cells were then incubated with PE-conjugated goat anti-mouse Fc polyclonal antibodies on ice for 15 minutes, washed with FACS buffer three times and then resuspended in FACS buffer containing 0.1 μg/ml PI (propidine iodine) for live/dead cell gating. Cells were then run through the FACS Caliber instrument and the data were analyzed by the Flowjo software. Results of the inhibition of LAG-3 binding to Daudi cells by chimeric mAbs B1C, B3C, B4C, BSC, B9C, and B11C are shown in FIG. 4B.

Binder	IC50 (read off the curve)	binding result
B1	~1 nM	
B2	~0.06 µg/mL	
B3	~0.1 µg/mL	
B4	~0.4 µg/mL	
B5	~0.4 µg/mL	
B6		binds
B7	~0.3 µg/mL	
B8	~0.3 µg/mL	
B9	~0.4 µg/mL	

biological target: T4, B12 (human IgG1 heavy chain and kappa light chain chimeric); assay: ELISA peptide competition: peptide preincubated with chimeric IgG1 B12, competitor hLAG3-mFc; peptide at 600-fold hLAG3-mFc; capture on anti-human IgG, anti-mouse IgG-HRP
T4 construct: Chimeric: mouse VH and VL with human IgG1 heavy chain and kappa light chain constant regions
Procedure: as §1, §2

T4 sequence (VH, as listed by the source): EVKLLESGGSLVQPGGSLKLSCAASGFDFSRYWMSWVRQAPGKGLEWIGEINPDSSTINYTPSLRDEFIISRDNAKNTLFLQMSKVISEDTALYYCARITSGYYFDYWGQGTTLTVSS

Binder	binding result
PDSGPPAAAPGHPLAP (also called peptide P16) [P16]	binds
QPDSGPPAAAPGHPLA (also called peptide Q16) [Q16]	binds
SGPPAAAPGHPLAP (also called peptide S14) [S14]	binds
QPDSGPPAAAPGHPLAP (also called peptide Q17) [Q17]	binds
GPPAAAPGHPLAPGPHPAA (also called peptide 1-19) [1-19]	binds
DSGPPAAAPGHPLAP (also called peptide D15) [D15]	binds
